Tests used:
Notch1 [1] = assay: Notch inhibition assay in co-culture format (CHO-K1 N1-Gal4 with HEK293T expressing WT DLL4); type: cell-based; conditions: co-culture 1:1 with HEK293T expressing WT DLL4; read-out: IC50 for inhibition of Notch1 activation by cellular DLL4
Description: For inhibition of CHO-K1 N1-Gal4 cells with DAPT and Delta^MAX, the experiment was set-up following the protocol described above with the exception that CHO-K1 N1-Gal4 reporters were incubated with HEK293T-expressing WT DLL4 for Notch activation. Three-fold serial dilutions of soluble Delta^MAX and DAPT were prepared in DPBS starting at 6,000 nM. For DAPT, a stock solution of 100 μM in 8% DMSO was prepared before serial dilutions in DPBS. Appropriate DMSO controls were also assayed for cytotoxicity. Final DMSO concentration in the wells was maintained below 1%. Thirty thousand signal senders and pre-blocked signal receivers (100 μL each) were incubated for 24 hours at 37° C. and 5% CO2 before analysis by flow cytometry. Maximum Notch activation (100%) was set in the absence of soluble inhibitors and normalized to wells containing CHO-K1 N1-Gal4 cells and HEK293T lacking expression of WT DLL4. Mean fluorescence intensity is represented as percentage relative to Notch activation in the absence of inhibitors±s.d. of three independent biological replicates.

Notch3 = assay: Notch inhibition, U2OS luciferase reporter on WT DLL4 coated plates; type: cell-based, human; conditions: plates coated with 50 nM WT DLL4, 10-fold dilutions from 3,000 nM
Notch3, sequence (Q9UM47 197-505 limits assumed): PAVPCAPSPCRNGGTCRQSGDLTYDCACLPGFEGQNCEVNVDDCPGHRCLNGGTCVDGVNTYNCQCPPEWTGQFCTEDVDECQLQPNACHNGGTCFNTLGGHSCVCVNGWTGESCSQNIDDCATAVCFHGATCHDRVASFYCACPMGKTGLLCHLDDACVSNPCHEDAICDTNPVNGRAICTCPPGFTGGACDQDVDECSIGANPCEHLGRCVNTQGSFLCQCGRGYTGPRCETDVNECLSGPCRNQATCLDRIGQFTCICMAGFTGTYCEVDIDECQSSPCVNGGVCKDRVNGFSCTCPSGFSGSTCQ
Description: (§1) For U2OS cells, on day one, 5×10^5 cells were plated in 6-well tissue culture plates. On day two, U2OS cells were transfected as described above. On day three, 96-well plates (Coastar) were coated with streptavidin and biotinylated WT DLL4 at 50 nM as described above. Next, U2OS reporter cells were detached with trypsin-EDTA and diluted at 200,000 cells/mL in DMEM media. Ten-fold serial dilutions of soluble DLL4 variants starting at 6,000 nM were prepared in DPBS and used to pre-block reports cells following the same protocol described above. Two-hundred microliters of inhibition reactions were added to 96-well plates pre-coated with biotinylated WT DLL4 ligand at 50 nM, and assay plates incubated for 24 hours at 37° C. and 5% CO2. On day fourth, luciferase signals were measured with Dual-Glo luciferase assay system (Promega) using a GloMax luminometer (Promega). Doxycycline at 2 μg/mL was maintained to […]. A ratio between firefly and Renilla luciferase was calculated, and Notch activation normalized to wells where inhibitors were non-added. The data represent fold-change of Notch activation as percentage, relative to Notch activation in the absence of inhibitors±s.d. of three independent biological replicates.

Notch2 = assay: as above; type: cell-based, human; conditions: plates coated with 50 nM WT DLL4, 10-fold dilutions from 3,000 nM
Description: as §1

Notch1 [2] = assay: as above; type: cell-based, human; conditions: plates coated with 50 nM WT DLL4, 10-fold dilutions from 3,000 nM
Description: as §1
Target sequence in this assay (P46531 19-1664 limits assumed): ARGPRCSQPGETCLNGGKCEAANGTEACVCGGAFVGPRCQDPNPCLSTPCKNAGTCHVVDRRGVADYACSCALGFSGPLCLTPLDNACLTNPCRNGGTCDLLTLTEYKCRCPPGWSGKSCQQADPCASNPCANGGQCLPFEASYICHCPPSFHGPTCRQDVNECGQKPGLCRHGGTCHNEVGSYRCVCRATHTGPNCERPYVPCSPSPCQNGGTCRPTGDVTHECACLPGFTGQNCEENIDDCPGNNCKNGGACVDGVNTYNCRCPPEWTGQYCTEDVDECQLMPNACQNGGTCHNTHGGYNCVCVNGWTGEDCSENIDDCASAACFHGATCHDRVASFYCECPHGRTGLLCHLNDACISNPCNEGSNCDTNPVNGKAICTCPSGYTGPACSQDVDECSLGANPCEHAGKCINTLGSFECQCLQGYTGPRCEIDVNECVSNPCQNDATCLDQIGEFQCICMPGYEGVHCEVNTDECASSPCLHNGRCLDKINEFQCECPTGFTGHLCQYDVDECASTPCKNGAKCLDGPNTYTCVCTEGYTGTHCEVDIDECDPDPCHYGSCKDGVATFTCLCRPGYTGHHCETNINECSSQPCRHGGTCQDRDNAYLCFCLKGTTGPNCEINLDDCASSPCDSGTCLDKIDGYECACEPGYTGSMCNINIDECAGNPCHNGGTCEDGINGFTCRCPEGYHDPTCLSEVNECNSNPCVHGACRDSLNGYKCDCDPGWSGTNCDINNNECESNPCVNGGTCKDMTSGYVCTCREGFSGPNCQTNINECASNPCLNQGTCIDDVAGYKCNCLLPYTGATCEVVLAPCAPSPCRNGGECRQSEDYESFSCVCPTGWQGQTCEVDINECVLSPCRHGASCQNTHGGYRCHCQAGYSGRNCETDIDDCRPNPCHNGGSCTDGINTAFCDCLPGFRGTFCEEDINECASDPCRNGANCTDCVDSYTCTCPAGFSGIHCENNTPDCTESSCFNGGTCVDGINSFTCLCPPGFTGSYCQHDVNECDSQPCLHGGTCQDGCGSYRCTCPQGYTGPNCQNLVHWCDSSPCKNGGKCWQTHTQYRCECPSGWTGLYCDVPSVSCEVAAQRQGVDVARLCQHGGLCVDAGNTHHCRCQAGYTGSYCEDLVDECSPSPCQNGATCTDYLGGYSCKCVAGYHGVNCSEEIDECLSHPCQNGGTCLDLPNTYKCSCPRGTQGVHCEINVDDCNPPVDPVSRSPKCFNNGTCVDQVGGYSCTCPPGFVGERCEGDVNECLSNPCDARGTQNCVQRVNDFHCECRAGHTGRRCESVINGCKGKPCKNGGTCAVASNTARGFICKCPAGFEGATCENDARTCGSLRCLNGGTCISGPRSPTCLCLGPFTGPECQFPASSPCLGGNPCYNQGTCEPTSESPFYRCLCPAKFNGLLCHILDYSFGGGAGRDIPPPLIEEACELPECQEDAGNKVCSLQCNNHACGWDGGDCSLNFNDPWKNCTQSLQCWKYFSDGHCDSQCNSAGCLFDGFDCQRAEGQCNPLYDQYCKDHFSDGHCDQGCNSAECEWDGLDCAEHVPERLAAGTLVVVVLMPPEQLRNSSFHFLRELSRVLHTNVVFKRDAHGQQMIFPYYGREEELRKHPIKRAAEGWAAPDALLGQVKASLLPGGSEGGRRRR
Target sequence in this assay (P46531 1665-1756 limits assumed): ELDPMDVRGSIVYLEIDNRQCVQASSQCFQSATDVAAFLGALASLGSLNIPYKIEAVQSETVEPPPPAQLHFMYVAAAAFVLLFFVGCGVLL

Notch1 (EGF6-13) = assay: SPR determination of equilibrium dissociation constants; type: binding, human
Notch1 (EGF6-13), sequence (P46531 257-526 limits assumed): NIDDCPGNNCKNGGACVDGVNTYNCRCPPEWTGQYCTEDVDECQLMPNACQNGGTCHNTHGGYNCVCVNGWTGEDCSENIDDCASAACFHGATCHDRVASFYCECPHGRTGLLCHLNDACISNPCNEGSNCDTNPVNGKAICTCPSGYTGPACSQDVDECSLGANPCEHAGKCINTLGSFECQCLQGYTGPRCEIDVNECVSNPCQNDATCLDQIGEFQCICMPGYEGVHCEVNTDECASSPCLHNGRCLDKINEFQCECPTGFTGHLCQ
Description: Equilibrium dissociation constants were determined by surface plasmon resonance using a Biacore T200 instrument (GE Healthcare). Approximately 100 resonance units (RU) of biotinylated Notch extracellular fragments (Notch1 (EGF6-13), Notch2 (EGF6-13), Notch3 (EGF5-12), Notch4 (7-12), and mouse Notch1 (EGF6-13)) were immobilized on individual flow cells at 5 μl/min using a streptavidin-coated sensor chip (Series S Sensor chip SA, GE Healthcare). Three-fold serial dilutions of recombinant DLL4 proteins (N-EGF5) starting at 50 μM (WT DLL4), 18 μM (DLL4.v2), and 6 μM (DLL4.v1 and Delta^MAX) were flowed over the chip at 25° C. in SPR buffer (20 mM HEPES pH 7.4, 150 mM NaCl, 1 mM calcium chloride, 0.1% BSA supplemented with 0.005% surfactant P20). Association (“on-rate”) and dissociation (“off-rate”) phases were performed at 10 μl/min for 120 seconds and 300 seconds, respectively. The sensor chip was regenerated after each injection with 30-second washes of 2.25M Magnesium Chloride containing 25% Ethylene Glycol at 50 μL/min. Data collection rate was performed at 10 Hz, and curves were reference-subtracted from a flow cell containing 100 RU of a negative control non-related protein (biotinylated mouse RNF43 PA domain). The maximum RU for each experiment was normalized to a value of 100% and plotted as a function of concentration using Prism 9 software (GraphPad). Steady-state binding and kinetic curves were fitted using the Biacore T200 evaluation software to a 1:1 Langmuir model to determine the KD values.

Notch1 [3] = biological target: T1, Notch1 (Homo sapiens, UniProt P46531); assay: Immunoblot of cleaved Notch1 in CD8+ T cells; type: cell-based; conditions: CD8+ T cells after 96 hours with K32 cells
T1 construct: endogenous in cells; host or cells: primary human CD8+ T cells from PBMC
T1 sequence (P46531 19-2555): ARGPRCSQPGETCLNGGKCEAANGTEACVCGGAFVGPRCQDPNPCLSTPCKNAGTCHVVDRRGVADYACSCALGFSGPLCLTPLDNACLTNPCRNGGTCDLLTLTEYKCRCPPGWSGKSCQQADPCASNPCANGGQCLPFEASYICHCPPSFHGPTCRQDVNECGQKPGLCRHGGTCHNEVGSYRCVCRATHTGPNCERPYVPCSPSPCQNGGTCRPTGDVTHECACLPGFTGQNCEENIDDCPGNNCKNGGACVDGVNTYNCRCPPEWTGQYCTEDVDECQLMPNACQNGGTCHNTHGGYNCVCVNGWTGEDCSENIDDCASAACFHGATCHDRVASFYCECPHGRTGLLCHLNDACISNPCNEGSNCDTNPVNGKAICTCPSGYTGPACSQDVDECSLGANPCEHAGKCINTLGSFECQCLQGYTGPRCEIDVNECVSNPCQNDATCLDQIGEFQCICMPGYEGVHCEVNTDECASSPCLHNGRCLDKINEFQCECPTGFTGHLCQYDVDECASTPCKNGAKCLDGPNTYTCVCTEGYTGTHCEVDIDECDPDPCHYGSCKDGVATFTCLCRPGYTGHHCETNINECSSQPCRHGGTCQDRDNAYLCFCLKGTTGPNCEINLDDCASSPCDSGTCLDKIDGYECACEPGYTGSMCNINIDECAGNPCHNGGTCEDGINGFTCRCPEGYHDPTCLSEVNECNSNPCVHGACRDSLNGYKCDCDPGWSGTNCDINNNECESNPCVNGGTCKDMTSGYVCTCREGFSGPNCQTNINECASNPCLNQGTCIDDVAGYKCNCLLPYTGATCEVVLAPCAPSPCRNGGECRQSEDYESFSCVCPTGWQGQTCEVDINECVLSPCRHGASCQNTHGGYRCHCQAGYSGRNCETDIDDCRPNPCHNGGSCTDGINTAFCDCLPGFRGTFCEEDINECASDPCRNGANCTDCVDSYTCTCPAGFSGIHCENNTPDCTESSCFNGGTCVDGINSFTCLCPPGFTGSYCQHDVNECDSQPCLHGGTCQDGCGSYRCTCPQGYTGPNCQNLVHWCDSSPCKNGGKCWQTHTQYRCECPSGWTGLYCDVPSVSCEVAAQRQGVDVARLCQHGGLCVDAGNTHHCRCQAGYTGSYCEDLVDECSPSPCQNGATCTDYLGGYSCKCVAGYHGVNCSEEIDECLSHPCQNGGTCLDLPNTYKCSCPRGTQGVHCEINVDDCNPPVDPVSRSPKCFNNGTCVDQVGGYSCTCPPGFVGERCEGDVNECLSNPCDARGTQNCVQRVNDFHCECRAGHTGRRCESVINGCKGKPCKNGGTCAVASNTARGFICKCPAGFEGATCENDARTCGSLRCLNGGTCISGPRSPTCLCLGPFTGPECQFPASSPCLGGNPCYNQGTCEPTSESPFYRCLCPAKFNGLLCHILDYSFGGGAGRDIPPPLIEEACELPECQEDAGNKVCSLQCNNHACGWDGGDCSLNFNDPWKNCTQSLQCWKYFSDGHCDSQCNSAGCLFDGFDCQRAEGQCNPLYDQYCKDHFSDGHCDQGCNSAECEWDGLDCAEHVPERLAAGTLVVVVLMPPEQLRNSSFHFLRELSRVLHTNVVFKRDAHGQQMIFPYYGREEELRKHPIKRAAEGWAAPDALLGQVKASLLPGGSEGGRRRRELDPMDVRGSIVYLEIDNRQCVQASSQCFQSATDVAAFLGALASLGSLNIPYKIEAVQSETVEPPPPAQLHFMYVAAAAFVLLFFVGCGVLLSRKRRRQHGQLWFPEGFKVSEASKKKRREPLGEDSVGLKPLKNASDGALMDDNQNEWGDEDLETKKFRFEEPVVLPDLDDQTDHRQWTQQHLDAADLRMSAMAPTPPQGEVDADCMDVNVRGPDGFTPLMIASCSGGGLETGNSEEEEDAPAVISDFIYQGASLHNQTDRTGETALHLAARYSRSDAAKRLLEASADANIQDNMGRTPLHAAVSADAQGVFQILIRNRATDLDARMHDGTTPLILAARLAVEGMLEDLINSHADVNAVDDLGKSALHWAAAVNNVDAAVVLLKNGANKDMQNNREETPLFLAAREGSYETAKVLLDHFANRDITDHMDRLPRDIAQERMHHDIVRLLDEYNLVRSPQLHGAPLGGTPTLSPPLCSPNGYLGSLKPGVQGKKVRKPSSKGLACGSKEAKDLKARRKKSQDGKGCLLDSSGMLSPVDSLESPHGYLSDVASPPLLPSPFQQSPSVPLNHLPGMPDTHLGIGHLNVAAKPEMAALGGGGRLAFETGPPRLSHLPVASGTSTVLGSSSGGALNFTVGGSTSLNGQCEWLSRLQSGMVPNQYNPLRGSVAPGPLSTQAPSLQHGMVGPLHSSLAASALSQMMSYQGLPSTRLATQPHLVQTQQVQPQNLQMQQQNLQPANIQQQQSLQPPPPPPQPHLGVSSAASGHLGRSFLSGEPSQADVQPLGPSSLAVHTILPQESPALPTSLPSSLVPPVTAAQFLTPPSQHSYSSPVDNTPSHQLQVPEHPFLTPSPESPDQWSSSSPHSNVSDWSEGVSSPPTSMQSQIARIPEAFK
Text: For detection of Notch activation in CD8^+ T cells, following co-culture with K32 cell lines, CD8^+ T cells were positively enriched by Magnisort Human CD8^+ T cell positive selection Kit (Invitrogen). Nuclear fraction was isolated using NE-PER Nuclear and Cytoplasmic extraction kit (ThermoFisher). Equal protein amounts of nuclear cell lysates were run on 4-20% gradient Tris-glycine gels (Novex-Invitrogen), transferred to PVDF membranes using an iBlot Gel Transfer Device (ThermoFisher), and immunoblotted with antibodies anti-cleaved Notch1 (Val1744 rabbit mAb, Cell Signaling Technology, 1:1,000), anti-Notch2 (D76A6 rabbit mAb, Cell Signaling Technology, 1:1,000), and anti-β Actin (mouse mAb, Sigma, 1:20,000). Secondary antibodies anti-IgG (anti-rabbit or anti-mouse, GE Healthcare, 1:5,000) conjugated to horseradish peroxidase (HRP) were used for detection of proteins using ECL Western Blot Substrate Reagent (Thermo Fisher Scientific). Images were acquired using a Chemidoc Imaging System and analyzed with Image-Lab software (Bio-Rad).

B1: Delta^MAX: engineered human DLL4 consensus variant with 10 mutations combining DLL4.v1 and DLL4.v2 mutations; sequence matches SEQ ID NO: 4/10 (protein)
chain: SSVFQLQLQEFINERGVLASGRPCEPGCRTFFRVCLKHFQAVVSPGPCTFGTVSTPVLGTNSFAVRDDSSGGGRNPLQLPLNFTWPGTFSLIIEAWHAPGDDLRPEALPPDALISKFAIQGSLAVGQNWLLDEQTSTLTRLRYSYRVICSDNYYGDNCSRLCKKRNDYFGHYVCQPDGNPSCLPGWTGEYCQQPICLSGCHEQNGYCSKPAECLCRPGWQGRLCNECIPHPGCRHGTCSTPWQCLCDEGWGGLYCDQDLNYCTHHSPCKNGATCRNSGPRSYTCTCRPGYTGVDCELELSECDSNPCRNGGSCKDQEDGYHCLCPPGYYGLHCEHSTLSCADSPCFNGGSCRERNQGANYACECPPNFTGSNCE
Q: Which IC50 (Notch1 [1]) does the source give for B1 here?
A: 0.4 µM

Q: And the “effect of soluble competitor on Notch3 signaling” value (Notch3)?
A: dose-dependent decreases

Q: What about the “effect of soluble competitor on Notch2 signaling” value (Notch2) of the same molecule?
A: dose-dependent decreases

Q: And the “effect of soluble competitor on Notch1 signaling” value (Notch1 [2])?
A: dose-dependent decreases

Q: And the “enhancement of affinity compared to WT DLL4” value (Notch1 (EGF6-13); Notch1)?
A: 1,029 fold

Q: What about the Kd (Notch1 (EGF6-13); SPR, 25° C., ligand N-EGF5, read-out: dissociation constant (KD)) of the same molecule?
A: 0.024 µM

Q: What about the “off-rate from fitted SPR sensograms” value (Notch1 (EGF6-13); series DLL4.v1, DLL4.v2, Delta^MAX, FIG. 2C Notch1 EGF6-13) of the same molecule?
A: progressive decreases in off-rate

Q: What about the “binding affinity compared to WT DLL4” value (Notch1 (EGF6-13); stated for all four human Notch receptors (Notch1-4)) of the same molecule?
A: enhanced affinity

Q: And the “Notch1 activation (cleaved ICD) relative to WT DLL4” value (Notch1 [3])?
A: increased

Source: US20260055369A1, “METHOD FOR GENERATING CELLS OF THE T CELL LINEAGE WITH ENGINEERING BROADLY REACTIVE HUMAN NOTCH LIGAND” (H. Lee Moffitt Cancer Center and Research Institute, Inc., priority 2022, published 2026)
